Patent publication US20120277164A1 (IMPERIAL INNOVATIONS, published 2012)
Square brackets hold non-standard residues; d marks the D form. Ends that are not written are not given here. * marks the point of attachment. Fmoc = O=C(OCC1c2ccccc2-c2ccccc21)*; Cha = N[C@@H](CC1CCCCC1)C(=O)O; ClZ = O=C(OCc1ccccc1Cl)*; Cbz = O=C(OCc1ccccc1)*; Bz = O=C(c1ccccc1)*; Myr = myristyl

T1: Gadd45β/MKK7 complex (biotin-hGadd45β with coated GST-MKK7, ELISA format) (human) (UniProt O75293)
T1 sequence (biotinylated (sites not stated), looked up) 1: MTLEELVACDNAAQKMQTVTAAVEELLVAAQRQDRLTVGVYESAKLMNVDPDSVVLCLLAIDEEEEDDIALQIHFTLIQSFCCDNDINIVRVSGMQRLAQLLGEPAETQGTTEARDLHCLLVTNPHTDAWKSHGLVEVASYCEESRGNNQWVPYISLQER
T1 sequence (biotinylated (sites not stated), looked up) 2: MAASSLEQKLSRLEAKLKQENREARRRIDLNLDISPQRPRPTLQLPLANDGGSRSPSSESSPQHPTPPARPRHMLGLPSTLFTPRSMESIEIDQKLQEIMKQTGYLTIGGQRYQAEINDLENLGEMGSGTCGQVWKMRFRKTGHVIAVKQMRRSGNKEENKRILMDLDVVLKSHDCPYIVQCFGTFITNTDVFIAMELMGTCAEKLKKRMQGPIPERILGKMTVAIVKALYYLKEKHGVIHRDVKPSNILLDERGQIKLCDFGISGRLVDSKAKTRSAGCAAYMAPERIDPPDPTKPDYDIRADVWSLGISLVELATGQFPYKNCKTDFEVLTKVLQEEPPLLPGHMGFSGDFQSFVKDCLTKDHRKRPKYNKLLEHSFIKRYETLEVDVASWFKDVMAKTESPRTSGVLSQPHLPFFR

T2: Gadd45β/MKK7 complex (biotin-hGadd45β with coated GST-MKK7, ELISA format) (human, UniProt O75293 1-160; O14733 1-419, biotinylated (sites not given))
T2 construct: not shown: glutathione S-transferase (GST) fusion partner
T2 sequence (looked up) 1: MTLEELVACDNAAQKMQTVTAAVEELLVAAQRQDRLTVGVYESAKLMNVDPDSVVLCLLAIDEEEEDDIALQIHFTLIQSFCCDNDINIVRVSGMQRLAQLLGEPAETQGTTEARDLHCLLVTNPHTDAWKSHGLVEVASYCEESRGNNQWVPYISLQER
T2 sequence (looked up) 2: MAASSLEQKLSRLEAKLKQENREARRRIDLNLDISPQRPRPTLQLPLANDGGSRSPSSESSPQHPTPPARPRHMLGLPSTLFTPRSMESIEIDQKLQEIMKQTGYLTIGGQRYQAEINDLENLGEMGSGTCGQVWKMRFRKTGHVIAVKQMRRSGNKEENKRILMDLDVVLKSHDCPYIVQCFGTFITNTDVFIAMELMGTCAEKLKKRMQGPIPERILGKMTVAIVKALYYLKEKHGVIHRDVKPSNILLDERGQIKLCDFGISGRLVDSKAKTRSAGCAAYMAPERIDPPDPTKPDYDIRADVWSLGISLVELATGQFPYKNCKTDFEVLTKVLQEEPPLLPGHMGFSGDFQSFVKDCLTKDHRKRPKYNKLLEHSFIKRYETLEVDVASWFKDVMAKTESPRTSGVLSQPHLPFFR

B1: Z-Tyr-Tyr-Glu-Arg-Phe-NH2 (peptide)
peptide: Cbz-[dY][dY][dE][dR][dF]-NH2
B2: Z-Tyr-Tyr-Asp-His Gln-NH2 (peptide)
peptide: Cbz-[dY][dY][dD][dH][dQ]-NH2
B3: Ac-Tyr-Tyr-Arg-Phe-NH2 (peptide)
peptide: Ac-[dY][dY][dR][dF]-NH2
modifications: also: D/L configuration not given here
B4: Ac-Tyr-Met-Arg-Phe-NH2 (peptide)
peptide: Ac-[dY][dM][dR][dF]-NH2
modifications: also: D/L configuration not given here
B5: Ac-Tyr-Gln-Arg-Phe-NH2 (peptide)
peptide: Ac-[dY][dQ][dR][dF]-NH2
modifications: also: D/L configuration not given here
B6: Ac-Tyr-Asn-Arg-Phe-NH2 (peptide)
peptide: Ac-[dY][dN][dR][dF]-NH2
modifications: also: D/L configuration not given here
B7: Z-Tyr-Asp-His-Gln-NH2 (peptide)
peptide: Cbz-[dY][dD][dH][dQ]-NH2
B8: Ac-Tyr-Leu-Arg-Phe-NH2 (peptide)
peptide: Ac-[dY][dL][dR][dF]-NH2
modifications: also: D/L configuration not given here
B9: Ac-WDRF-NH2 (peptide)
peptide: Ac-WDRF-NH2
B10: Ac-WDHF-NH2 (peptide)
peptide: Ac-WDHF-NH2
B11: Ac-WDRW-NH2 (peptide)
peptide: Ac-WDRW-NH2
B12: Ac-WDKW-NH2 (peptide)
peptide: Ac-WDKW-NH2
B13: Ac-WDKF-NH2 (peptide)
peptide: Ac-WDKF-NH2
B14: Ac-WDHW-NH2 (peptide)
peptide: Ac-WDHW-NH2
B15: Z-YD(OMe)HF-NH2 (peptide)
peptide: Cbz-YD(OMe)HF-NH2
B16: Fmoc-YDHF-NH2 (peptide)
peptide: Fmoc-YDHF-NH2
B17: 2CI-Z-YDHF-NH2 (peptide)
peptide: ClZ-YDHF-NH2
B18: 2CI-Z-YDHQ-NH2 (peptide)
peptide: ClZ-YDHQ-NH2
B19: Ac-YPRF-NH2 (peptide)
peptide: Ac-YPRF-NH2
B20: 2CI-Z-YERF-NH2 (peptide)
peptide: ClZ-YERF-NH2
B21: Myr-YDHQ-NH2 (peptide)
peptide: Myr-YDHQ-NH2
B22: Ac-YEAF-NH2 (peptide)
peptide: Ac-YEAF-NH2
B23: Z-YERF-NH2 (peptide)
peptide: Cbz-YERF-NH2
notes: also called Z-LTP2
B24: Z-YDHQ-NH2 (peptide)
peptide: Cbz-YDHQ-NH2
B25: Ac-YERP-NH2 (peptide)
peptide: Ac-YERP-NH2
B26: Ac-YARF-NH2 (peptide)
peptide: Ac-YARF-NH2
B27: Ac-YERA-NH2 (peptide)
peptide: Ac-YERA-NH2
B28: Ac-PERF-NH2 (peptide)
peptide: Ac-PERF-NH2
B29: Myr-YERF-NH2 (peptide)
peptide: Myr-YERF-NH2
B30: Fmoc-YERF-NH2 (peptide)
peptide: Fmoc-YERF-NH2
B31: 3-OH-4MeO-Benzoid acid-YERF-NH2 (peptide)
peptide: {3‑OH‑4MeO‑benzoic acid}-YERF-NH2
B32: Benzoic acid-YERF-NH2 (peptide)
peptide: Bz-YERF-NH2
B33: Ac-YEPF-NH2 (peptide)
peptide: Ac-YEPF-NH2
B34: Benzoic acid-YDHF-NH2 (peptide)
peptide: Bz-YDHF-NH2
B35: Myr-YDHF-NH2 (peptide)
peptide: Myr-YDHF-NH2
B36: 3-OH-4MeO-Benzoid acid-YDHF-NH2 (peptide)
peptide: {3‑hydroxy‑4‑methoxybenzoyl}-YDHF-NH2
B37: Z-YDHF-NH2 (peptide)
peptide: Cbz-YDHF-NH2
notes: also called Z-LTP1

target: T1, Gadd45β/MKK7 complex (biotin-hGadd45β with coated GST-MKK7, ELISA format) (human); assay: competition ELISA; coated GST-MKK7 42 nM, biotin-hGadd45β 21 nM

IC50 [nM] | Molecule
0.758 | Ac-YRY-NH2 (peptide)
0.162 | Cbz-Tyr-Asp-Phe-NH2
1.9 | Ac-Tyr-Asn-Phe-NH2 (peptide)
0.158 | Z-Tyr-Glu-Phe-NH2 (mDTP2) (peptide)
0.69 | Ac-YHF-NH2 (peptide)
> 5 | Ac-[Cha]-Arg-Phe-NH2
0.1 | Cbz-Tyr-Arg-Phe-NH2
> 10 | AC-Tyr-Met-Phe-NH2 (peptide)
> 5 | Ac-Tyr-Arg-[Cha]
0.75 | H-YRY-NH2 (peptide)
0.645 | Ac-YPF-NH2 (peptide)
> 10 | Ac-Tyr-Gln-Phe-NH2 (peptide)
0.645 | H-YHF-NH2 (peptide)
1.8 | Ac-Tyr-Leu-Phe-NH2 (peptide)
> 5 | B1
> 10 | B2
> 5 | B3
> 10 | B4
5 | B5
10 | B6
> 10 | B7
5 | B8

target: T2, Gadd45β/MKK7 complex (biotin-hGadd45β …); assay: competition ELISA; coated GST-MKK7, biotin-hGadd45β; single dose

% Inhibition of Gadd45β-MKK7 binding [%] | Molecule
46 | B9
28 | B10
93 | B11
69 | B12
26 | B13
50 | B14

target: T2, Gadd45β/MKK7 complex (biotin-hGadd45β …); assay: as above; remark: another data set of the same source

% Inhibition of Gadd45β-MKK7 binding [%] | Molecule
84 | B15
58 | B16
38 | B17
40 | B18
13 | B19
38 | B20
28 | B21
13 | B22
78 | B23
13 | B24
0 | B25
17 | B26
28 | B27
24 | B28
37 | B29
60 | B30
86 | B31
24 | B32
13 | B33
0 | B34
26 | B35
81 | B36
84 | B37
